Data published in the nanobody polyreactivity screen of Harvey et al. (2022).

Experiment: yeast display, Sf9 membrane polyspecificity reagent, FACS + sequencing; frameworks hold sequencing errors
Outline: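 Synthetic nanobody libraries on Saccharomyces cerevisiae BJ5465 were galactose-induced for 36–48 hours, stained 1 hour at 4 °C with 10% biotinylated, detergent-solubilized Sf9 membrane reagent and enriched on streptavidin microbeads. FACS then separated cells into low and high (top ~1%) gates by anti-HA (expression) and streptavidin (reagent binding) fluorescence. Genes were colony-PCR amplified, MiSeq 2 × 250 sequenced and CDR-length filtered. A clone's polyreactivity label is that of its gate of origin.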

Sequence	polyreactivity (PSR sort gate)
QVQLVESGGGLLQAGGSLRFSCAASGRILAGNAMGWYRQAPGTEREWVAAICSVDSTNYADSVKGRFTISRDNAKNTFYLLMYSLKPEDSAVYYCARVPQYNTYSEFDSWGQGTQVTVSS	low polyreactivity
QVQLVESCGGLVQAGGSHRLSCAASGSTFKGYDMGWYRQAPGKERELVAAIDSGGSTYYADSVKGRFTISRDNAKNTVYLQMNSLKPEDTAVYYCAATGQDTYGLDVVDEYDYWGQGTQVTVSS	low polyreactivity
QVQLVESGGGLVQAGGSLRLSCAASGSILKYYAMGWYRQAPGKERELVAAISSGGSTYYADSVKGRFTISRDNAKNTVYLQMNSLKPEDTAVYYCAAAWYGAKYIVLYDYWGQGTQVTVSS	low polyreactivity
QVQLVESGGGLVQAGGSLRLSCAASGQIFYTNTMGWYRQAPGKERELVAAINSGDRTYYADSVKGRFTISRDNAKNTVYLQMNSLKPEDTAVYYCAARNYATAVRYDYWGQGTQVTVSS	high polyreactivity
QVQLVESGGGLVQGGGSLRLSCAASGRTFYGYAMGWYRQAPGKERELVAAITRSGGSTYYADSVKGRFTISRDNAKKTVYLQMNILKPVDTAVYYCAAGGQARHDYWGQGTQVTVSS	low polyreactivity
QVQLVESGGGLVQAGGSLRLSCAASGIIFLVNAMGWYRQAPGKESELVATITSGGSTYADSVKGRFTISRDNAKYTVYLQMNSLKPEDTAVYYCAAVRRRRNSYGYWGQGTQVTVSS	high polyreactivity
QVQLVESGGGLVQAGGSLRLSCAASGFIFSSNAMGWYRQAPGKERELVAAITSSGGGTYYADSVKGRFTISRDNAKNTVYLQMNSLKPEDTAVYYCNAAYKYAIPSYGYWGQGTQVTVSS	low polyreactivity
QVQLVETGGGIVQAGVSLRISCASSGRTFRWYAMGWSRQSPGKERELVAAITSGGGTYYADSVKGLFTISRDYAKNTVYLQMNRLKREDTAVYYCNKLHRDRYDYWGQGTQVTVSS	high polyreactivity
QVQLVESGGGLVQAGGSLRLSCAASGIIFGRYARGWYRQAPGKDRELVATISYRGGRTNYADSVKGRFTISRDNAKNTVYLQSNSLKPEDTAVYDCAAPHFSYSGGTHDYWGQGTQVTVSS	high polyreactivity
QVQLVESGGGLVQAGGSLRLSCAASGSTFVRNAMGWYRQAPGKERELVAAISRSGGRTYYADSVKGRFTISRDNAKNTVYLQMNSLKPEDTAVYYCAADVYDAGVRYDYWGQGTQVTVSS	high polyreactivity
QVQLVESGGGLVQAGGSLRISCAASGSIFYVYAMGWYRQAPGKERELVATISTGGSTYYADSVKGRFTISRDNAKNTVYLQMNSLKPEDTAVYYCNAQFTPRYWGGYDSWGQGTQVTVSS	low polyreactivity
QVQLVESGGGLVQAGGSLRLSCAASGFTFTYYAMGWYRPAPGKERELVAAISTGGSTYYADSVKGRFTISRDNAKNTVYLQMNSLKPEDTAVYYCNAKPRYRKADRLDYWGQGTQVTVSS	high polyreactivity
QVQLVESGGGLVQAGGSLRLSCAASGRTSLRYAMGWYRQAPGKERELVAAIRYGGGSTRYADSVKGRFTISRDNAKNTVYLQMNSLKPEDTAVYYCAARYFPRIQYGRKGYDYWGQGTQVTVSS	low polyreactivity
QVQLVESGGGLVQAGGSLRFSCAASGRIFWYYVMGWDRQAPGKEREFVASISSGGSTYYADSVKGRFTISRDNANNTVYLQMNSLKPEDTAVYYCNAYVYGQRVWYDYWGQGTQVTVSS	high polyreactivity
QVQLVESGGGLVQAGGSLRLSCAASGYTFFLNAMGWYRPAPGNERELVAVITNVGSTYYADSVKGRFTISRDNAKNTVYLQMHSLKPEDTAVYYCAAEYLAYYSGYDYWGQGTQVTVSS	high polyreactivity
QVQLVQSGGGLVQAGGSLRLSCAASGRNYSDNPMGWYRQAPGKERELVAANSSTGGTYYADSVKGRFTISRDNAKNTVYLQMNSLKPEDTAVYYCAARYRTLTKYYWGQGTQVSVSS	low polyreactivity
QVQLVESGGGLVQAGGSLRLSCAASGSTFPGNAMGGYRQAPGKERELVAAINWSGDSTYYADSVKGRFTISRDNAKNTVYLQMNSLKPEDTAVYYCAAYGDGYYYWGQGTQVTVSS	low polyreactivity
QVQLVESGGGLVQVGGSLRLICAASGGIFSGNAMGWYRQAPGKERELVAGITNGGRTTYADSVKGRFTISRDNAKNTVYLQMNSLKPEDTAVYYCAAGKIGRRGHQNRLDLDYWGQGTQVTVSS	low polyreactivity
QVQLVESGGGLVQAGGSLRLSCAASGRTFLRYAMGWYRQAPGKERELVAAITYGGRTNYADSVKGRFTISRDNAKNTVYLQMNSLKPEDTAVYYCAADRTYYYGLRVYYWGQGTQVTVSS	high polyreactivity
QVQLVESGGGLVQAGGSLRLSCAASGITSWYYAMGWYRQAPGKERELVAAITSDGSTYYADSVKGRFTISRDNAKNTVYLQMNSLKPEDTAVYYCAAERDYWIPDSYLVGMDYWGQGTQVTVSS	low polyreactivity
QVQLVESGGGLVQAGGSLRLSCAASGRIIRGYVMGWYRQAPRKEREMVAITIGAGRTYYADSVKGRFTISRDNAKNTVYLQMNSLIPEDTAVYYCAADTYSTSGYYYWGQGTQVTVSS	low polyreactivity
QVQLLESGGGLVQAGGSLRLSCAPSGSTFGYYAMGWYRPAPGKERELVAAITSGGRTYYADSVKGRFTISRDNAKNTVYLQMISLKPEETAVYYFAAIYRTYNKFDYWGQGTQVTVSS	high polyreactivity

Sequence	polyreactivity (PSR sort gate)
HVQLVESGGGLVQAGGSLRLSCAASGRIFGVYVMGWYRPAPGKERELVAGISPSGGSTYYADSVKGRFTISRDNAKNTVYLQMNSLKPEDTAVYYCAAVLRIRRPRYGYWGQGTQVTVSS	high polyreactivity
QVQLVESGGGLVQAGGSLRLSCAASGFTFSWYAMGRYRQAPGKERELVAAISSAGNTNYADSVKGRFTISRDNAKNTVYLQMNSLKPEDTAVYYCAKRDYWGQGTQVTVSS	high polyreactivity
QVQLVESGGGLVQAGGSLRLSCAASGRTFDRYAMGWYRQAPGKERELVAAISRGGSTNYADSVKGRFTISRDNAKNTVYLQMNSLKPEDTAVYYCAARVSFLHLRRAYDYWGQGTQVTVSS	high polyreactivity
QVQLVESGGGLVQAGGSLRLSCAASGSTSYRYAMGWYRQAPGKERELVAAISSSGGSTYYADSVKGRFTISRDNAKNTVYLQMNSLKPEDTAVYYCAARFYSGPGGYTMYYWGQGTQVTVSS	high polyreactivity
QVQLVESGGGFVQAGGSLRLSCAASGSTFSPNGMGWYRPAPGKERELVAAISSSTGSTNYADSVKGRFTISRDNAKNTVYLQMNSLKPEDTAVYYCAVDPYVHWTTKLYDYWGQGSQVTVSS	low polyreactivity
QVQLVESGGGLVQAGGSLRLSCAASGFTFSVNAMGWYRQAPGKERELVAAITRSGGRTYYADSVKGRFTISRDNAKNTVYLQMNSLKPEDTAVYYCATPRSRTDGYDYWGQGTQVTVSS	high polyreactivity
QVQHEESGGGLVQAGGSLRLSCAASGYTFSFYAMGWSRQAPGKERELVAAISSSDGTTYYADSVKGRFTISRDNAKNTVYLQMNSLKPQDTAVYYCNTRYVRQVVGTYTLKTRYYWGQGTQVTVSS	high polyreactivity
QVQLVESGGGLVQAGGSLRLSCAASGGTFPVYAMGWYRQAPGKERELVAAISYSGVTTYYADSVKGRFTISRDNAKNTVYLQMNSLKPEDTAVYYCNADWRRWYIFSYDYWGQGTQVTVSS	low polyreactivity
QVQLVESGGGLVQAGGSLRLSCAASGSTFYDYAMGWYRQAPGKERELVAAISRSGGSTYYADSVKGRFTISRDNAKNTVYLQRNSLKPEDTAVYYCAASRATLLRYGYWGQGTQVTVSS	low polyreactivity
QVQLVESGGGLVQAGGSLRLSCAASGSIFHRYAMGWYRQAPGKERELVAAISWRGSSTYYADSVKGRFTISRDNAKNTVYLQMNSLKPEDTAVYYCNARGGSRRRYDYWGQGTQVTVSS	high polyreactivity
QVQLVESGGGLVQAGGSLRLTCAASGGTFDRNAMGWYRQAPGKERELVATITRRAGNTYYAYSVKGRFTISRDNAKNTVYLQMNSLKPEDTAVYYFAAYPLRSRRYYYWGQGTQVTVSS	high polyreactivity
QVQLVESGGGLVQAGGSLRLSCAASGSIFFYYAMGWYRQAPGKERELVAAITLSDGRTYYADSVKGRFTISRDNAKNTVYLQMNSLKPEDTAVYYCNADTGWYPTGARWHHYDYWGQGTQVTVSS	high polyreactivity
PVQLVESGGGLVQAGGSLSLTCAASGIIFPVYAMGWYIQAPGKERELVAAITYSGDRTYYADSVKGRFTISRDNAKYTVYLQMNSLKPEDTAVDYFNARFGVWPYFYNEDDYLGQGTQVTVSS	low polyreactivity
QVQLVESGAGLVQAAGSLRLSCAASGRTFSRNAMGWYRQAPGQERELVARIRSGGSTYYADSVKGRFTISRDNAKNTVYLQMNSLKPDETAVFYLAADRYGYQFDYWGQGTQVTVSS	high polyreactivity
QVQLVESGGGLVQAGGSLRLSCAASGFTFDSYAMGWYRQAPGNDRELVAAISYRGGSTYYADSVKGRFSISRDNAKNTVYLQMNSLKPEDTAVFYCAARSPSAAYGSYGVYSWGQGTQVTVSS	high polyreactivity
QVQLVESGGGLVQAGGSLRLSCAASGSTFSGNAMGWDRQAPGKESELVAAINSVRTYYADSVKGRFTISRDNAKNTVYLQMNSLKQEDTAVYYCNAEGYVSLSQYGVRRHSDYWGQGTQVNVSS	high polyreactivity
QVQLVESGRGLVQAGGSLRLSCAASGSIFGYYAMGWYRQAPGKERELVAAISRSGGSTYYADSVKGRFTISRDNAKNTVYLQMNSLKPEDTAVYYCAADDYPYGNYYWGQGTQVTVSS	high polyreactivity
QVQLVESGGGLVQAGGSLSLSCAASGSIFKFNTMGWSRQAPRKERELVAAISRSGGSTYYADSVKGRFTISRDNAKNNVYLQMNSLKPEDTAVYYCAARQFSGPYVRYGYWGQGTQVSVSS	high polyreactivity
QVQLVESGGGLVQAGGSLRLSCAASGFTFSTYTMGWYRQAPGKERELVARITWSGTRTYYADSVKGRFTISRDNAKNTVYLQMNSLKPEDTAVYYCNAGPYARYYWGQGTQVTVSS	high polyreactivity
QVQLVESGGGLVQAGGSLRLSCAASGSIFTYYAMGWYRQAPGKERELVAAITSTGGSTYYADSVKGRFTISRDNAKNTVYLQMNSQKPEDTAVYYCATDYGYYDYWGQGTQVTVSS	low polyreactivity
QVQLVESGGGLVQAGGSLRLSCAASGSIFSYYAMGWYRQAPGKERELVADITVRGGSTYYADSVKGRFTISRDNAKNTVYLQMNSLIPEDTAVYYCAADWLDESFSYGPYYYWGQGTQVTVSS	low polyreactivity
